Experiment [1] concerns the target CXCR2 on purified human neutrophils (human) (UniProt P25025). Description: cell-based or functional assay.
Experiment [2] deals with CXCR1 on CXCR1-transfected HEK293 cells (UniProt P25024). Kind of experiment: cell-based or functional assay.
UniProt P25024, sequence (P25024 whole entry): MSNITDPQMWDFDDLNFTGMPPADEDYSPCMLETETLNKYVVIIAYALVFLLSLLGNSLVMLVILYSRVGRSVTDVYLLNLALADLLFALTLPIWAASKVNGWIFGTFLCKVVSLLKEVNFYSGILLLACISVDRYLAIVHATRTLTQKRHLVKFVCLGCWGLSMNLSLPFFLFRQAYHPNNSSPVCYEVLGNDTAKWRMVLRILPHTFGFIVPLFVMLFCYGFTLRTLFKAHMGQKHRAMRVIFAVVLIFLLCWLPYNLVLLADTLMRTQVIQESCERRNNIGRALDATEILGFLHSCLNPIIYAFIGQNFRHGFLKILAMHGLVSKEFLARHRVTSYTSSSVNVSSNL

UniProt P25025, sequence (P25025 whole entry): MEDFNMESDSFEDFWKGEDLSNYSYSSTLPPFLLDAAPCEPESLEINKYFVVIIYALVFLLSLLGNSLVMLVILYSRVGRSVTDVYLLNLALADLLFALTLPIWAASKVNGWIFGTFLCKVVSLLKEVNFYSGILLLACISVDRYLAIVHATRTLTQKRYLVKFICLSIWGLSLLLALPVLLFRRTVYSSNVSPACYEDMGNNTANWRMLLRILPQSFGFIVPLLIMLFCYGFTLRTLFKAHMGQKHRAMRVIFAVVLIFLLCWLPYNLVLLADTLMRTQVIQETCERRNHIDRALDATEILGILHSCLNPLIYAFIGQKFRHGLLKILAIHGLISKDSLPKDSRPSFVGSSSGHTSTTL

In experiment [1], “human GS-CXCL8(3-72)K11R/G31P (from UniProt P10145 30-99) (ligand)” had an intracellular Ca^++ flux in human neutrophils induced by CXCL1 (100 ng/ml), G31P at 10 ng/ml of less than 95 % reduced and an intracellular Ca^++ flux in human neutrophils induced by CXCL5 (100 ng/ml), G31P at 10 ng/ml of less than 95 % reduced. This substance registered a CXCL8-induced chemotactic responses of CXCR1-transfected HEK293 cells (modified Boyden chamber), G31P at 10 ng/ml in experiment [2] of 80 % blocked.

(Values after patent US20120070405A1.)
